The source of these data is paper PMC5883317 (Journal of Molecular and Cellular Cardiology, 2018).

By Kd is commonly meant the equilibrium constant for the complex coming apart.

Test [1] has as its target F-actin (rabbit skeletal actin) (rabbit) (UniProt P68135).
Test [2] addresses RLC-depleted isolated porcine β-cardiac myosin (porcine) (UniProt P79293). Description: reconstitution of RLC-depleted myosin, SDS-PAGE densitometry.
Test [3] concerns the target cardiac myosin binding protein-C fragment spanning domains C0 to C2 (C0C2) (UniProt Q14896 1-452). Description: MST.
Test [4] concerns the target T1, wildtype myosin regulatory light chain (WT-RLC), unlabeled recombinant (human, UniProt P10916 1-166).
T1 sequence (looked up): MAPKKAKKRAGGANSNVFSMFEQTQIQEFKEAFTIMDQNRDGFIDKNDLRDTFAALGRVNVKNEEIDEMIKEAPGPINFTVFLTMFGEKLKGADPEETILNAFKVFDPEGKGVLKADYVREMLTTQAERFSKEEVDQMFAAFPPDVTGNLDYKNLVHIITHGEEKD
As to the kind of experiment: other fluorescence titration.

Numbering of substitutions follows the chain as printed. Numbers in names are those of the source.

Chain of cardiac myosin binding protein-C fragment spanning domains C0 to C2 (C0C2) (Q14896 1-452): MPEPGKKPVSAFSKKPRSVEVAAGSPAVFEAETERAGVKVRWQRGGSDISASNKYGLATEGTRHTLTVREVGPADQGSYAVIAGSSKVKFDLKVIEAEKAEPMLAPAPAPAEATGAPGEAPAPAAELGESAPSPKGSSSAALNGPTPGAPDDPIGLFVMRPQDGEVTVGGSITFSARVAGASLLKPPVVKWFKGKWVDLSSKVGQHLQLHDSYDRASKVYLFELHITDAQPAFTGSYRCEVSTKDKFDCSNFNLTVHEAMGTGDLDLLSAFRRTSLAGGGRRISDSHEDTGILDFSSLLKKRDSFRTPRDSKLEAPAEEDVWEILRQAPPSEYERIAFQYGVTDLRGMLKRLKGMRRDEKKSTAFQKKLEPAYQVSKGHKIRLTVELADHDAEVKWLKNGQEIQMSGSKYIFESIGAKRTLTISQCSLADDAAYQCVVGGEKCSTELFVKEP

For the molecule “porcine β-cardiac myosin fully reconstituted with WT-RLC (from UniProt P79293 1-1935; P10916 1-166) (complex)”, in test [1], the KM for F-actin of the F-actin activated myosin ATPase (Michaelis-Menten fit) came out at 1.5 µM. Same read-out and setting: the figure for “porcine β-cardiac myosin fully reconstituted with R58Q-RLC (from UniProt P79293 1-1935; P10916 1-166) (complex)” is 2.91 µM.

B1: wildtype myosin regulatory light chain (WT-RLC), unlabeled recombinant (natural protein)
chain: T1 sequence (looked up)
For the molecule B1, the Kd in test [2] is 4 µM.

B2: Alexa 647 labelled WT-RLC (natural protein, human, UniProt P10916 1-166, looked up)
chain: T1 sequence (looked up)
modifications: Alexa 647 (labelled with Alexa 647-NHS; site not stated)
As for B2, the Kd in test [3] came out at 8.6 µM.

B3: Alexa 647 labelled R58Q-RLC (natural protein, human, UniProt P10916 1-166, looked up)
chain: T1 sequence (looked up) with R58Q
modifications: Alexa 647 (labelled with Alexa 647-NHS; site not stated)
Take B3: binding in test [3] was characterised by a dissociation constant (Kd) of 9.7 µM.

B4: myosin regulatory light chain with the hypertrophic cardiomyopathy mutation R58Q (R58Q-RLC), unlabeled recombinant (natural protein)
chain: T1 sequence (looked up) with R58Q
Take B4: the dissociation constant Kd in test [2] is 4 µM. Take ERRDSLLVIQWNIRAFMGVKNWPWMKLYFKIK [RLC binding site peptide of the human β-cardiac myosin heavy chain (amino acids 805–837)]: the equilibrium dissociation constant (Kd) in test [4] is less than 0.5 µM.
